Substitutions are numbered along the chain they refer to. Names and notes keep the numbering of the source. Blank lines part the entries; values can stand above or below the binder they belong to.
Experiments:
Assay in all cases: SEC
[1] = target: GltPh-A V355C-S279C, unlabeled (Pyrococcus Horikoshi), O59010
[2] = target: GltPh-A A353C-L130C, unlabeled (Pyrococcus Horikoshi), O59010
[3] = target: GltPh-A V355C-P129C, unlabeled (Pyrococcus Horikoshi), O59010

- stoichiometry N [1]: 3
B1: GltPh-A V355C-S279C, unlabeled, O59010 1-425 (natural protein)
chain: MGLYRKYIEYPVLQKILIGLILGAIVGLILGHYGYAHAVHTYVKPFGDLFVRLLKMLVMPIVFASLVVGAASISPARLGRVGVKIVVYYLLTSAFAVTLGIIMARLFNPGAGIHLAVGGQQFQPHQAPPLVHILLDIVPTNPFGALANGQVLPTIFFAIILGIAITYLMNSENEKVRKSAETLLDAINGLAEAMYKIVNGVMQYAPIGVFALIAYVMAEQGVHVVGELAKVTAAVYVGLTLQILLVYFVLLKIYGIDPISFIKHAKDAMLTAFVTRSSCGTLPVTMRVAKEMGISEGIYSFTLPLGATINMDGTALYQGVATFFIANALGSHLTVGQQLTIVLTAVLASIGTAGCPGAGAIMLAMVLHSVGLPLTDPNVAAAYAMILGIDAILDMGRTMVNVTGDLTGTAIVAKTEGTLVPR
modifications: not checked

- stoichiometry N [2]: 3
B2: GltPh-A A353C-L130C, unlabeled, O59010 1-425 (natural protein)
chain: B1 chain with L130C, C279S, A353C, C355V
modifications: not checked

- stoichiometry N [3]: 3
B3: GltPh-A V355C-P129C, unlabeled, O59010 1-425 (natural protein)
chain: B1 chain with P129C, C279S
modifications: not checked

— PMC3096012
